What was measured:
Assay in all cases: cell-based or functional assay
[1] = biological target: HIV-1 Env of strain 0330.v4.c3 (HIV-1)
[2] = biological target: HIV-1 Env of strain 1006_11_C3_1601 (HIV-1)
[3] = biological target: HIV-1 Env of strain 1056_10_TA11_1826 (HIV-1)
[4] = biological target: HIV-1 Env of strain 3301.v1.c24 (HIV-1)
[5] = biological target: HIV-1 Env of strain 3718.v3.c11 (HIV-1)
[6] = biological target: HIV-1 Env of strain 620345.c01 (HIV-1)
[7] = biological target: HIV-1 Env of strain 6535.3 (HIV-1)
[8] = biological target: HIV-1 Env of strain 6540.v4.cl (HIV-1)
[9] = biological target: HIV-1 Env of strain 6545.v4.cl (HIV-1)
[10] = biological target: HIV-1 Env of strain 928-28 (HIV-1)
[11] = biological target: HIV-1 Env of strain CAP210.2.00.E8 (HIV-1)
[12] = biological target: HIV-1 Env of strain Ce0682_E4 (HIV-1)
[13] = biological target: HIV-1 Env of strain Ce1176_A3 (HIV-1)
[14] = biological target: HIV-1 Env of strain Ce703010054_2A2 (HIV-1)
[15] = biological target: HIV-1 Env of strain Du156.12 (HIV-1)
[16] = biological target: HIV-1 Env of strain Q769.d22 (HIV-1)
[17] = biological target: HIV-1 Env of strain Q842.d12 (HIV-1)
[18] = biological target: HIV-1 Env of strain RHPA4259.7 (HIV-1)
[19] = biological target: HIV-1 Env of strain T250-4 (HIV-1)
[20] = biological target: HIV-1 Env of strain T251-18 (HIV-1)
[21] = biological target: HIV-1 Env of strain X1254_c3 (HIV-1)
[22] = biological target: HIV-1 Env of strain X2131_C1_B5 (HIV-1)
[23] = biological target: HIV-1 Env of strain ZM135M.PL10a (HIV-1)
[24] = biological target: HIV-1 Env of strain ZM53M.PB12 (HIV-1)
[25] = biological target: HIV-1 strain 1054_07_TC4_1499 envelope (gp120) (HIV-1)
[26] = biological target: HIV-1 strain 231965.c01 envelope (gp120) (HIV-1)
[27] = biological target: HIV-1 strain 3016.v5.c45 envelope (gp120) (HIV-1)
[28] = biological target: HIV-1 strain 3718.v3.c11 envelope (gp120) (HIV-1)
[29] = biological target: HIV-1 strain 3817.v2.c59 envelope (gp120) (HIV-1)
[30] = biological target: HIV-1 strain 6811.v7.c18 envelope (gp120) (HIV-1)
[31] = biological target: HIV-1 strain 703357.C02 envelope (gp120) (HIV-1)
[32] = biological target: HIV-1 strain CNE20 envelope (gp120) (HIV-1)
[33] = biological target: HIV-1 strain Ce1176_A3 envelope (gp120) (HIV-1)
[34] = biological target: HIV-1 strain Ce2010_F5 envelope (gp120) (HIV-1)
[35] = biological target: HIV-1 strain Du156.12 envelope (gp120) (HIV-1)
[36] = biological target: HIV-1 strain P1981_C5_3 envelope (gp120) (HIV-1)
[37] = biological target: HIV-1 strain Q259.d2.17 envelope (gp120) (HIV-1)
[38] = biological target: HIV-1 strain Q842.d12 envelope (gp120) (HIV-1)
[39] = biological target: HIV-1 strain RHPA4259.7 envelope (gp120) (HIV-1)
[40] = biological target: HIV-1 strain T250-4 envelope (gp120) (HIV-1)
[41] = biological target: HIV-1 strain T255-34 envelope (gp120) (HIV-1)
[42] = biological target: HIV-1 strain TRO.11 envelope (gp120) (HIV-1)
[43] = biological target: HIV-1 strain WEAU_d15_410_787 envelope (gp120) (HIV-1)
[44] = biological target: HIV-1 strain WITO4160.33 envelope (gp120) (HIV-1)
[45] = biological target: HIV-1 strain X1193_c1 envelope (gp120) (HIV-1)
[46] = biological target: HIV-1 strain X2131_C1_B5 envelope (gp120) (HIV-1)
[47] = biological target: HIV-1 strain ZM109F.PB4 envelope (gp120) (HIV-1)
[48] = biological target: HIV-1 strain ZM197M.PB7 envelope (gp120) (HIV-1)
[49] = biological target: HIV-1 strain ZM214M.PL15 envelope (gp120) (HIV-1)
[50] = biological target: HIV-1 strain ZM53M.PB12 envelope (gp120) (HIV-1)

B1: NIH45-46^G54W IgG (antibody, name in Kabat numbering, V domains shown)
VH: QVRLSQSGGQMKKPGESMRLSCRASGYEFLNCPINWIRLAPGRRPEWMGWLKPRWGAVNYARKFQGRVTMTRDVYSDTAFLELRSLTSDDTAVYFCTRGKYCTARDYYNWDFEHWGRGAPVTVSS
VL: EIVLTQSPATLSLSPGETAIISCRTSQSGSLAWYQQRPGQAPRLVIYSGSTRAAGIPDRFSGSRWGADYNLSISNLESGDFGVYYCQQYEFFGQGTKVQVDI
In the case of B1, the neutralization IC50 [1] is reported as 0.03 µg/mL, the neutralization IC50 [2] is reported as less than 0.001 µg/mL and the neutralization IC50 [3] is reported as 0.024 µg/mL. The neutralization IC50 [4] was less than 0.001 µg/mL, the improvement of neutralization potency over NIH45-46 [5] was 2000 fold and the neutralization IC50 [5] was 0.01 µg/mL. The neutralization IC50 [6] was greater than 50 µg/mL, the neutralization IC50 [7] was 0.03 µg/mL and the neutralization IC50 [8] was greater than 50 µg/mL. It also gave a neutralization IC50 [9] of 18.9 µg/mL, a neutralization IC50 [10] of 0.06 µg/mL and a neutralization IC50 [11] greater than 50 µg/mL. The neutralization IC50 [12] was 0.01 µg/mL, the neutralization IC50 [13] was 0.16 µg/mL and the neutralization IC50 [14] was 0.027 µg/mL. For the same binder, the neutralization IC50 [15] was less than 0.001 µg/mL, the neutralization IC50 [16] was less than 0.001 µg/mL and the neutralization IC50 [17] was 0.005 µg/mL. For the same binder, the neutralization IC50 [18] was less than 0.001 µg/mL, the neutralization IC50 [19] was 1.33 µg/mL and the neutralization IC50 [20] was 0.26 µg/mL. It also gave a neutralization IC50 [21] of 0.002 µg/mL, a neutralization IC50 [22] of 0.05 µg/mL and a neutralization IC50 [23] of 0.04 µg/mL. The neutralization IC50 [24] was 0.04 µg/mL, the neutralization IC80 [25] was 0.165 µg/mL and the neutralization IC80 [26] was 0.035 µg/mL. It also gave a neutralization IC80 [27] of 15.4 µg/mL, a neutralization IC80 [28] of 0.04 µg/mL and a neutralization IC80 [29] greater than 50 µg/mL. It also gave a neutralization IC80 [30] of 0.033 µg/mL, a neutralization IC80 [31] of 17.6 µg/mL and a neutralization IC80 [32] of 0.48 µg/mL. For the same binder, the neutralization IC80 [33] was 0.45 µg/mL, the neutralization IC80 [34] was 0.187 µg/mL and the neutralization IC80 [35] was 0.005 µg/mL. It also gave a neutralization IC80 [36] of 0.07 µg/mL, a neutralization IC80 [37] of 0.014 µg/mL and a neutralization IC80 [38] of 0.025 µg/mL. It also gave a neutralization IC80 [39] of 0.007 µg/mL, a neutralization IC80 [40] of 44.9 µg/mL and a neutralization IC80 [41] of 0.099 µg/mL. For the same binder, the neutralization IC80 [42] was 0.13 µg/mL, the neutralization IC80 [43] was 0.003 µg/mL and the neutralization IC80 [44] was 0.04 µg/mL. It also gave a neutralization IC80 [45] of 0.009 µg/mL, a neutralization IC80 [46] of 0.24 µg/mL and a neutralization IC80 [47] of 0.07 µg/mL. The neutralization IC80 [48] was 0.18 µg/mL, the neutralization IC80 [49] was 0.15 µg/mL and the neutralization IC80 [50] was 0.16 µg/mL.
